Numbered stars: 1 amine (or outer) side, 2 acyl side, 3 side chain; on linkers, the order of the positions; unused ones are H or OH. Square brackets hold non-standard residues; d marks the D form. Side chains are listed from the residue outwards. Ends that are not written are not given here. * marks the point of attachment. C20 diacid = O=C(O)CCCCCCCCCCCCCCCCCCC(=O)*; γGlu = O=C(O)[C@H](CCC(=O)[*:2])N[*:1]; AEEA = NCCOCCOCC(=O)O; Aib = CC(C)(N)C(=O)O
Experiments:
human glucagon receptor = biological target: T1, human glucagon receptor (human, UniProt P47871 26-477); experiment: SPA, [125I]-Gcg displacement, hGcgR membranes
T1 construct: whole, on cells; Used as crude membranes of stably transfected HEK293 cells; also called hGcgR; hGLcgR

human GIP receptor = biological target: T2, human GIP receptor (human, UniProt P48546 22-466); experiment: SPA, [125I]-GIP displacement, hGIPR membranes
T2 construct: whole, on cells; Used as crude membranes of stably transfected CHO cells; also called hGIPR
T2 sequence (looked up): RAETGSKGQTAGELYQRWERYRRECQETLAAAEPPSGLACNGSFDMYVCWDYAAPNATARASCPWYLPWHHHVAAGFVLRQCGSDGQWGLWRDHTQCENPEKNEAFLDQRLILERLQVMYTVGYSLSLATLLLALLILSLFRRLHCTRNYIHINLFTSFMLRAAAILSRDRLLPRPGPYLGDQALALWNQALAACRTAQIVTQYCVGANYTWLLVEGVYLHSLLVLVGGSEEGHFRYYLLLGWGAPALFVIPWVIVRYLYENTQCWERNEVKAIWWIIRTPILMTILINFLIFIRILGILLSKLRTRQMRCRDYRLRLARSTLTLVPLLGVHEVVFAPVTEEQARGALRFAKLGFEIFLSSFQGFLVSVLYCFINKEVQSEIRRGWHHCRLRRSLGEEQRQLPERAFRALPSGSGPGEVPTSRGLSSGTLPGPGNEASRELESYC

human GLP-1 receptor = biological target: T3, human GLP-1 receptor (human, UniProt P43220 24-463); experiment: SPA, [125I]-GLP-1 displacement, hGLP-1R membranes
T3 construct: whole, on cells; Used as crude membranes of stably transfected HEK293 cells; also called hGLP1R; hGLP-1R

T1 sequence (P47871 26-477): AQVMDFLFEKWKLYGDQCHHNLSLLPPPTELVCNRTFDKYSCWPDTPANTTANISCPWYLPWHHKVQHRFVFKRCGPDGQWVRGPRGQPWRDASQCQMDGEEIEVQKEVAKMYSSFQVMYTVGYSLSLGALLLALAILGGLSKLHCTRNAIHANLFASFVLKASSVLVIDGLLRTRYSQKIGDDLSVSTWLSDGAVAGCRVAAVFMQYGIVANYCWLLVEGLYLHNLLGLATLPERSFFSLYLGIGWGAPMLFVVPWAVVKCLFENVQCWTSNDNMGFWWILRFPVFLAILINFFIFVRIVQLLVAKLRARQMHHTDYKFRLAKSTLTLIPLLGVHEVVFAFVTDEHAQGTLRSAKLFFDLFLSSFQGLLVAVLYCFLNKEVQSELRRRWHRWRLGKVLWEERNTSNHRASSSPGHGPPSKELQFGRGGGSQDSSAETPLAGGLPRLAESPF

B1: Example 29 (peptide)
peptide: Y[Aib]EGTFTSDYSILLDK([AEEA-AEEA-γGlu-C20 diacid])IAQ[Aib]AFIEYLIEGGPSSGAPPPS-NH2
modifications: N-terminus assumed
SMILES: CC[C@H](C)[C@H](NC(=O)[C@H](CCCCNC(=O)COCCOCCNC(=O)COCCOCCNC(=O)CC[C@H](NC(=O)CCCCCCCCCCCCCCCCCCC(=O)O)C(=O)O)NC(=O)[C@H](CC(=O)O)NC(=O)[C@H](CC(C)C)NC(=O)[C@H](CC(C)C)NC(=O)[C@@H](NC(=O)[C@H](CO)NC(=O)[C@H](Cc1ccc(O)cc1)NC(=O)[C@H](CC(=O)O)NC(=O)[C@H](CO)NC(=O)[C@@H](NC(=O)[C@H](Cc1ccccc1)NC(=O)[C@@H](NC(=O)CNC(=O)[C@H](CCC(=O)O)NC(=O)C(C)(C)NC(=O)[C@@H](N)Cc1ccc(O)cc1)[C@@H](C)O)[C@@H](C)O)[C@@H](C)CC)C(=O)N[C@@H](C)C(=O)N[C@@H](CCC(N)=O)C(=O)NC(C)(C)C(=O)N[C@@H](C)C(=O)N[C@@H](Cc1ccccc1)C(=O)N[C@H](C(=O)N[C@@H](CCC(=O)O)C(=O)N[C@@H](Cc1ccc(O)cc1)C(=O)N[C@@H](CC(C)C)C(=O)N[C@H](C(=O)N[C@@H](CCC(=O)O)C(=O)NCC(=O)NCC(=O)N1CCC[C@H]1C(=O)N[C@@H](CO)C(=O)N[C@@H](CO)C(=O)NCC(=O)N[C@@H](C)C(=O)N1CCC[C@H]1C(=O)N1CCC[C@H]1C(=O)N1CCC[C@H]1C(=O)N[C@@H](CO)C(N)=O)[C@@H](C)CC)[C@@H](C)CC
- Ki (human glucagon receptor): 132 nM
- Ki (human GIP receptor): 0.377 nM
- Ki (human GLP-1 receptor): 8 nM

B2: Example 6 (peptide)
peptide: Y[Aib]EGTFTSDYSILLDKK([AEEA-AEEA-γGlu-C20 diacid])AQ[Aib]AFIEYLLEGGPSSGAPPPS-NH2
modifications: N-terminus assumed
SMILES: CC[C@H](C)[C@H](NC(=O)[C@H](Cc1ccccc1)NC(=O)[C@H](C)NC(=O)C(C)(C)NC(=O)[C@H](CCC(N)=O)NC(=O)[C@H](C)NC(=O)[C@H](CCCCNC(=O)COCCOCCNC(=O)COCCOCCNC(=O)CC[C@H](NC(=O)CCCCCCCCCCCCCCCCCCC(=O)O)C(=O)O)NC(=O)[C@H](CCCCN)NC(=O)[C@H](CC(=O)O)NC(=O)[C@H](CC(C)C)NC(=O)[C@H](CC(C)C)NC(=O)[C@@H](NC(=O)[C@H](CO)NC(=O)[C@H](Cc1ccc(O)cc1)NC(=O)[C@H](CC(=O)O)NC(=O)[C@H](CO)NC(=O)[C@@H](NC(=O)[C@H](Cc1ccccc1)NC(=O)[C@@H](NC(=O)CNC(=O)[C@H](CCC(=O)O)NC(=O)C(C)(C)NC(=O)[C@@H](N)Cc1ccc(O)cc1)[C@@H](C)O)[C@@H](C)O)[C@@H](C)CC)C(=O)N[C@@H](CCC(=O)O)C(=O)N[C@@H](Cc1ccc(O)cc1)C(=O)N[C@@H](CC(C)C)C(=O)N[C@@H](CC(C)C)C(=O)N[C@@H](CCC(=O)O)C(=O)NCC(=O)NCC(=O)N1CCC[C@H]1C(=O)N[C@@H](CO)C(=O)N[C@@H](CO)C(=O)NCC(=O)N[C@@H](C)C(=O)N1CCC[C@H]1C(=O)N1CCC[C@H]1C(=O)N1CCC[C@H]1C(=O)N[C@@H](CO)C(N)=O
- Ki (human glucagon receptor): 55.8 nM
- Ki (human GIP receptor): 0.0835 nM
- Ki (human GLP-1 receptor): 6.71 nM

B3: Example 7 (peptide)
peptide: Y[Aib]EGTFTSDYSILLDSK([AEEA-AEEA-γGlu-C20 diacid])AQ[Aib]AFIEYLLEGGPSSGAPPPS-NH2
modifications: N-terminus assumed
SMILES: CC[C@H](C)[C@H](NC(=O)[C@H](Cc1ccccc1)NC(=O)[C@H](C)NC(=O)C(C)(C)NC(=O)[C@H](CCC(N)=O)NC(=O)[C@H](C)NC(=O)[C@H](CCCCNC(=O)COCCOCCNC(=O)COCCOCCNC(=O)CC[C@H](NC(=O)CCCCCCCCCCCCCCCCCCC(=O)O)C(=O)O)NC(=O)[C@H](CO)NC(=O)[C@H](CC(=O)O)NC(=O)[C@H](CC(C)C)NC(=O)[C@H](CC(C)C)NC(=O)[C@@H](NC(=O)[C@H](CO)NC(=O)[C@H](Cc1ccc(O)cc1)NC(=O)[C@H](CC(=O)O)NC(=O)[C@H](CO)NC(=O)[C@@H](NC(=O)[C@H](Cc1ccccc1)NC(=O)[C@@H](NC(=O)CNC(=O)[C@H](CCC(=O)O)NC(=O)C(C)(C)NC(=O)[C@@H](N)Cc1ccc(O)cc1)[C@@H](C)O)[C@@H](C)O)[C@@H](C)CC)C(=O)N[C@@H](CCC(=O)O)C(=O)N[C@@H](Cc1ccc(O)cc1)C(=O)N[C@@H](CC(C)C)C(=O)N[C@@H](CC(C)C)C(=O)N[C@@H](CCC(=O)O)C(=O)NCC(=O)NCC(=O)N1CCC[C@H]1C(=O)N[C@@H](CO)C(=O)N[C@@H](CO)C(=O)NCC(=O)N[C@@H](C)C(=O)N1CCC[C@H]1C(=O)N1CCC[C@H]1C(=O)N1CCC[C@H]1C(=O)N[C@@H](CO)C(N)=O
- Ki (human glucagon receptor): 198 nM
- Ki (human GIP receptor): 0.252 nM
- Ki (human GLP-1 receptor): 43.3 nM

B4: Example 8 (peptide)
peptide: YXEGTFTSDYSILLDKKAQXAFIEYLIEGGPSSGAPPPS
modifications: Aib2; K17((2-[2-(2-Amino-ethoxy)-ethoxy]-acetyl)2-(γ-Glu)-CO-(CH2)18-CO2H); Aib20; C-terminal NH2
- Ki (human glucagon receptor): 206 nM
- Ki (human GIP receptor): 0.0772 nM
- Ki (human GLP-1 receptor): 2.84 nM

B5: Example 9 (peptide)
peptide: Y[Aib]EGTFTSDYSILLDSK([AEEA-AEEA-γGlu-C20 diacid])AQ[Aib]AFIEYLIEGGPSSGAPPPS-NH2
modifications: N-terminus assumed
SMILES: CC[C@H](C)[C@H](NC(=O)[C@H](CC(C)C)NC(=O)[C@H](Cc1ccc(O)cc1)NC(=O)[C@H](CCC(=O)O)NC(=O)[C@@H](NC(=O)[C@H](Cc1ccccc1)NC(=O)[C@H](C)NC(=O)C(C)(C)NC(=O)[C@H](CCC(N)=O)NC(=O)[C@H](C)NC(=O)[C@H](CCCCNC(=O)COCCOCCNC(=O)COCCOCCNC(=O)CC[C@H](NC(=O)CCCCCCCCCCCCCCCCCCC(=O)O)C(=O)O)NC(=O)[C@H](CO)NC(=O)[C@H](CC(=O)O)NC(=O)[C@H](CC(C)C)NC(=O)[C@H](CC(C)C)NC(=O)[C@@H](NC(=O)[C@H](CO)NC(=O)[C@H](Cc1ccc(O)cc1)NC(=O)[C@H](CC(=O)O)NC(=O)[C@H](CO)NC(=O)[C@@H](NC(=O)[C@H](Cc1ccccc1)NC(=O)[C@@H](NC(=O)CNC(=O)[C@H](CCC(=O)O)NC(=O)C(C)(C)NC(=O)[C@@H](N)Cc1ccc(O)cc1)[C@@H](C)O)[C@@H](C)O)[C@@H](C)CC)[C@@H](C)CC)C(=O)N[C@@H](CCC(=O)O)C(=O)NCC(=O)NCC(=O)N1CCC[C@H]1C(=O)N[C@@H](CO)C(=O)N[C@@H](CO)C(=O)NCC(=O)N[C@@H](C)C(=O)N1CCC[C@H]1C(=O)N1CCC[C@H]1C(=O)N1CCC[C@H]1C(=O)N[C@@H](CO)C(N)=O
- Ki (human glucagon receptor): 375 nM
- Ki (human GIP receptor): 0.127 nM
- Ki (human GLP-1 receptor): 14.9 nM

B6: Example 139 (peptide)
peptide: YXEGTXTSDYSIXLDKKAQXTFIEYLIEGGPSSGAPPPS
modifications: Aib2; αMeF6; αMeL13; K17((2-[2-(2-Amino-ethoxy)-ethoxy]-acetyl)2-(γ-Glu)-CO-(CH2)18-CO2H); Aib20; C-terminal NH2
- Ki (human glucagon receptor): 105 nM
- Ki (human GIP receptor): 0.036 nM

B7: Example 134 (peptide)
peptide: XXEGTXTSDYSIXLDEKAQXEFIEYLIEGGPSSGAPPPS
modifications: DesTyr1; Aib2; αMeF(2F)6; αMeL13; K17((2-[2-(2-Amino-ethoxy)-ethoxy]-acetyl)2-(γ-Glu)-CO-(CH2)18-CO2H); Aib20; C-terminal NH2
- Ki (human glucagon receptor): 60.5 nM
- Ki (human GIP receptor): 0.14 nM

B8: Example 13 (peptide)
peptide: Y[Aib]EGTFTSDYSILLD[Aib]IAQK([AEEA-AEEA-γGlu-C20 diacid])AFIEYLIEGGPSSGAPPPS-NH2
modifications: N-terminus assumed
SMILES: CC[C@H](C)[C@H](NC(=O)[C@H](CC(C)C)NC(=O)[C@H](Cc1ccc(O)cc1)NC(=O)[C@H](CCC(=O)O)NC(=O)[C@@H](NC(=O)[C@H](Cc1ccccc1)NC(=O)[C@H](C)NC(=O)[C@H](CCCCNC(=O)COCCOCCNC(=O)COCCOCCNC(=O)CC[C@H](NC(=O)CCCCCCCCCCCCCCCCCCC(=O)O)C(=O)O)NC(=O)[C@H](CCC(N)=O)NC(=O)[C@H](C)NC(=O)[C@@H](NC(=O)C(C)(C)NC(=O)[C@H](CC(=O)O)NC(=O)[C@H](CC(C)C)NC(=O)[C@H](CC(C)C)NC(=O)[C@@H](NC(=O)[C@H](CO)NC(=O)[C@H](Cc1ccc(O)cc1)NC(=O)[C@H](CC(=O)O)NC(=O)[C@H](CO)NC(=O)[C@@H](NC(=O)[C@H](Cc1ccccc1)NC(=O)[C@@H](NC(=O)CNC(=O)[C@H](CCC(=O)O)NC(=O)C(C)(C)NC(=O)[C@@H](N)Cc1ccc(O)cc1)[C@@H](C)O)[C@@H](C)O)[C@@H](C)CC)[C@@H](C)CC)[C@@H](C)CC)C(=O)N[C@@H](CCC(=O)O)C(=O)NCC(=O)NCC(=O)N1CCC[C@H]1C(=O)N[C@@H](CO)C(=O)N[C@@H](CO)C(=O)NCC(=O)N[C@@H](C)C(=O)N1CCC[C@H]1C(=O)N1CCC[C@H]1C(=O)N1CCC[C@H]1C(=O)N[C@@H](CO)C(N)=O
- Ki (human GIP receptor): 0.296 nM
- Ki (human GLP-1 receptor): 31.1 nM

Source: US20200024322A1 (Eli Lilly, published 2020)
